Source: US11149077B2, “Targeted therapeutics based on engineered proteins for tyrosine kinases receptors, including IGF-IR” (BRISTOL-MYERS SQUIBB COMPANY, priority 2006, dated 2021)

Key:
human IGF-IR = biological target: T1, human IGF-IR (Homo sapiens, UniProt P08069); experiment: Surface plasmon resonance (BIAcore) binding kinetics and affinity on immobilized IGF-IR
T1 construct: The extracellular domain of human IGF-IR (aa 1-932) was cloned into a mammalian expression vector; made in house
Method: The binding kinetics of fibronectin-based scaffold proteins binding proteins to the target was measured using BIAcore 2000 or 3000 biosensors (Pharmacia Biosensor). A capture assay was developed utilizing an IGF-IR-Fc fusion. A similar reagent had been described by Forbes et al. (Forbes et al. 2002, European J. Biochemistry, 269, 961-968). The extracellular domain of human IGF-IR (aa 1-932) was cloned into a mammalian expression vector containing the hinge and constant regions of human IgG1. Transient transfection of the plasmid produced a fusion protein, IGF-IR-Fc which was subsequently purified by Protein A chromatography and captured on Protein A immobilized on Biasensor CM5 chips by amine coupling. The kinetic analysis involved the capture of IGF-IR-Fc on Protein A followed by injection of the fibronectin-based scaffold protein in solution and regeneration of the Protein A surface by glycine pH 2.0. Sensorgrams were obtained at each concentration and were evaluated using a program Biaevaluation, BIA Evaluation 2.0 (BIAcore), to determine the rate constants ka (kon) and kd (koff) The dissociation constant, KD was calculated from the ratio of rate constants koff/kon. Typically, a concentration series (2 uM to 0 uM) of purified fibronectin-based scaffold protein was evaluated for binding to protein A captured human IGF-IR-Fc fusion protein.

human insulin receptor = biological target: T2, human insulin receptor (Homo sapiens, UniProt P06213); experiment: BIAcore binding to immobilized human insulin receptor; settings: percentage of signal for insulin binding at similar concentration
T2 construct: purchased R&D Systems (Minneapolis, Minn.)
Method: One liter E. coli growths of selected optimized clones were prepared and the proteins were purified.
In brief, 60 ug/mL of IR diluted in acetate 4.5 was coupled/immobilized to a level of 8300 RU and 11.9 ug/mL of VEGF-R2-Fc diluted in acetate 5.0 was immobilized to a level of 9700 RU on flow cells 2 and 3. A blank reference surface was prepared on FC1. […] Fibronectin-based scaffold proteins were diluted to 10 uM in HBS-EP (10 mM Hepes 150 mM NaCl 3 mM EDTA 0.05% Surfactant P20) and injected at 20 uL/min for 3 minutes over the flow cells at 25 C and dissociation was observed over 10 mins.

[1] = Differential scanning calorimetry (thermal stability, Tm); type: physicochemical; settings: DSC (FIG. 8)
Method: Differential Scanning calorimetry (DSC) analysis of midscaled clones was performed to determine thermal stability. A 1 mg/ml solution of appropriate clone was scanned in a N-DSC II calorimeter (calorimetry Sciences Corp) by ramping the temperature from 5° C. to 95° C. at a rate of 1 degree per minute under 3 atm pressure. The data was analyzed vs. a control run of the appropriate buffer using a best fit using Orgin Software (OrginLab Corp).

[2] = Size-exclusion chromatography (solution properties, monomericity); type: physicochemical
Method: Size-exclusion chromatography (SEC) was performed using a TSKgel Super SW2000 column (TOSOH Biosciences, LLC), 4.6 mm×30 cm, on an Agilent 1100 HPLC system with UV detection at A214 nm and A280 nm and with fluorescence detection (excitation=280 nm, emission=350 nm). A buffer of 100 mM sodium sulfate, 100 mM sodium phosphate, 150 mM sodium chloride, pH 6.8 at a flow rate of 100 μL/min was employed. Samples (0.1 to 1 μg each) at a concentration of approximately 100 μg/mL were injected separately. Gel filtration standards (Bio-Rad Laboratories, Hercules, Calif.) were used for molecular weight calibration.

[3] = system: human pancreatic adenocarcinoma cell line BxPC-3; experiment: Cell mitogenesis assay: IGF-I-mediated proliferation, 3H-thymidine; type: cell-based; settings: IGF-I-dependent proliferation, BxPC-3, 24 hour IGF-I exposure
Method: The purified, optimized IGF-IR clones were evaluated in cell-based assays in order to confirm activity.
The human pancreatic adenocarcinoma cell line BxPC-3 (ATCC, Manassas, Va.) was plated in 96 well plates at a concentration of 2500 cells per well in RPMI 1640 (Invitrogen, Carlsbad, Calif.) containing 10% fetal bovine serum (Hyclone, Logan, Utah). The following day, cells were washed in starvation medium consisting of RPMI 1640 containing 0.1% BSA (Sigma, St. Louis, Mo.). Washed cells were pre-incubated for four hours in starvation medium containing various concentrations of each IGF-IR antagonist. […] For the final four hours of incubation, cells were exposed to [^3H]-Thymidine (0.25 μCi/well; Perkin Elmer, Wellesley, Mass.). After the incubation period, cells were washed in PBS, lysed in 100 μL buffer consisting of 0.1% SDS+0.5 N NaOH, and counted on a TopCount NXT Scintillation Counter (Perkin Elmer, Wellesley, Mass.). The data were analyzed using SigmaPlot (Systat Software, Point Richmond, Calif.).

[4] = system: human plasmacytoma cell line NCI-H929; experiment: NCI-H929 cell proliferation assay (serum mediated proliferation); type: cell-based; settings: at all concentrations tested
Method: The human plasmacytoma cell line NCI-H929 (ATCC, Manassas, Va.) was plated in 96 well plates at a concentration of either 10000 or 25000 cells per well in DMEM (Invitrogen, Carlsbad, Calif.) containing 10% fetal bovine serum (Hyclone, Logan, Utah) containing various concentrations of IGF-IR antagonists. Cells were allowed to proliferate for 72 hours at 37° C., 5% CO2. After the proliferation period, cells were exposed to 20 μL of Cell Titer 96 Aqueous Proliferation Reagent (Promega, Madison, Wis.) and allowed to incubate for an additional four hours. Absorbance at 490 nm was measured on a Spectramax Plus 384 (Molecular Devices, Sunnyvale, Calif.), and the resulting data were analyzed using SigmaPlot (Systat Software, Point Richmond, Calif.).

RH41 sarcoma xenografts = experiment: In vivo antitumor activity in RH41 sarcoma xenografts; settings: 40 mg/kg, TIWx3, 20 ip
Method: *Tumor growth inhibition and probability values calculated on day 39. ^aVehicle was 80% PEG400, 20% dH2O. ^bVehicle was PBS. ^cAverage weight change for each group is the mean difference between weight at the start of treatment (Day 20) and after the end of treatment (Day 42). TVDT was calculated for a size of 500 mg Abbreviations used are as follows: po, oral route; ip, intraperitoneal route; LCK, gross log cell kill calculated as LCK=T−C/(3.32×TVDT) where T-C is the difference in time in days for the treated tumors (T) to reach a predetermined size (tumor target size) relative to the vehicle control group (C) divided by the tumor volume doubling time (TVDT) multiplied by 3.32.
Tumors were propagated in nude mice. Tumor passages occurred every four weeks for human RH41 xenografts. With regard to efficacy testing human tumor xenografts were implanted in nude mice. All tumor passages were subcutaneous (sc).
Antitumor activity was evaluated in terms of: a) cures, and for the murine tumor models, increases in lifespan reflected by the relative median survival time (MST) of treated (T) versus control (C) groups (i.e. % T/C values); and b) primary tumor growth inhibition determined by calculating the relative median times for T and C mice to grow tumors of a predetermined “target” size (1 gm for all sc tumor models described) and expressed as T-C values, in days. The definition of a cured mouse was one whose tumor was undetectable, or <35 mg, when assessed more than 10 tumor volume doubling times (TVDTs) post-treatment. The activity criterion for tumor inhibition/reduction was a statistically significant delay in primary tumor growth consistent with 1 gross log cell kill (LCK). The following formula was employed to calculate LCK: LCK=T−C/(3.32×TVDT)
Where, TVDT=median time (days) for control tumors to reach target size—median time (days) for control tumors to reach half the target size. […] The maximum tolerated dose (MTD) is defined as the dose level immediately […] which excessive toxicity (i.e. more than one death) occurred. […] Statistical evaluations of data were performed using Gehan's generalized Wilcoxon test (Gehan, Biometrika 52:203-223, 1965). Western Blot Analysis of 385A08-Fc

[5] = Table 4, optimized 218C04 clones

Row | Molecule | Kd (human IGF-IR; [5]) [nM] | ka (human IGF-IR; [5]) | kd (human IGF-IR; [5]) | % IR Binding at 10 μM (human insulin receptor; Table 5) [%] | % IR Binding at 10 μM (human insulin receptor; Table 8) [%] | unfolding temperature (Tm) [1] [°C] | solution behaviour by SEC (monomer / aggregation) [2] | IC50 [3] [nM] | faster on-rate (ka) relative to unmodified 385A08 (human IGF-IR) | off-rate (kd) relative to unmodified 385A08 (human IGF-IR) | ka (human IGF-IR; Table 10, PEGylated variants) | kd (human IGF-IR; Table 10, PEGylated variants) | inhibition of cell growth [4] | Outcome by (% TGI) (RH41 sarcoma xenografts) | % TGI (RH41 sarcoma xenografts; calculated on day 39) [%] | LCK (RH41 sarcoma xenografts; gross log cell kill)
1 | 338A06 (protein) VSDVPRDLEVVAATPTSLLISWSARLKVARYYRITYGETGGNSPVQEFTVPKNVYTATISGLKPGVDYTITVYAVTKMRDYRPISINYRT | 0.069 | 2.2 1/M*s × 10^+6 | 4.3 1/s × 10^−4 | 2 | 0 | 62 | monomeric behavior | 10 to 20 | – | – | – | – | – | – | – | –
2 | 385A08-PEG20-385A08: two 385A08 (SEQ ID NO: 203) domains coupled via Cys97 to a linear 20 kDa bifunctional PEG (conjugate, 20 kDa bifunctional PEG via Cys97) chain 1: GVSDVPRDLEVVAATPTSLLISWSARLKVARYYRITYGETGGNSPVQEFTVPKNVYTATISGLKPGVDYTITVYAVTRFRDYQPISINYRTEIDKPCQ chain 2: GVSDVPRDLEVVAATPTSLLISWSARLKVARYYRITYGETGGNSPVQEFTVPKNVYTATISGLKPGVDYTITVYAVTRFRDYQPISINYRTEIDKPCQ | – | – | – | – | – | – | – | – | approximately two-fold | slightly decreased | 15 1/M*s × 10^+6 | 0.9 1/s × 10^−4 | approximately 100% | A (A % TGI value of >50% was considered active) | 66 | 0.6
